Reference: publication PMC3042717

Biological target: GST-VP16 (aa 452-490) (herpes simplex virus) (UniProt P06492)
Experiment: pull-down

UniProt P06492, sequence (P06492 452-490): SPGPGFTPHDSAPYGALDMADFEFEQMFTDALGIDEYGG

wild-type p300 over-expressed in A293 cells, Q09472 1-2414
fold more efficient pull-down than of p300ΔC: 5 fold
